Here are results for 13 molecules from patent US20240228660A1 (IP2IPO INNOVATIONS, published 2024).

In experiment [1] the target is T1, human full-length VWF (human, UniProt P04275 764-2813). Description: SPR Biacore T200, antibody captured on Protein A chip, full-length VWF as analyte, single-cycle kinetics. Background: Surface plasmon resonance follows binding to a sensor surface in real time, without labels.
Procedure: (§1) Antibodies were captured on Protein A sensor chip. The system was purged using running buffer (10 mM HEPES pH 7.4, 300 mM NaCl, 3 mM EDTA, 0.05% P20) and a series S Protein A chip was docked in the Biacore T200. The surface was conditioned with 10 mM glycine-HCl pH 1.5 regeneration solution (3 injections). Each antibody was diluted to ˜0.8 μg/ml in running buffer to capture ˜350 RU on flow cells 2, 3 and 4 (flow cell 1 used as in-line reference cell). Single-cycle kinetic analysis of human full-length VWF binding to antibodies was performed using the following parameters:
The target in experiment [2] is T1, human full-length VWF. Description: SPR, Biacore T200, antibody captured on Protein A, full-length VWF as analyte, single-cycle kinetics.
Procedure: as §1
For experiment [3], the target named is T2, human native VWF (human, UniProt P04275 764-2813).
T2 construct: Multimeric glycoprotein; also called native VWF protein; native VWF (305 kDa)
Kind of experiment: SPR, Biacore 8K, antibody captured on Protein A, native VWF as analyte (4.4-50 nM), single-cycle kinetics, 1:1 fit; replicate 2.
Procedure: (§2) The surface plasmon resonance (SPR) experiments were performed using a Biacore 8K (Cytiva) equipped with a research grade Protein A series S sensor chip. […] Flow cell 1 was left blank to serve as a reference surface. […] The complex was allowed to associate and dissociate for 120 seconds and 7200 seconds respectively. The surfaces were regenerated with 30 see injections of 10 mM glycine-HCl pH1.5.
(§3) Data were collected at a rate of 10 Hz. The data were fit to a simple 1:1 interaction model using the global data analysis option available within the Biacore Insight Evaluation software version 3.0.12.15655.

Experiment [4] has as its target T2, human native VWF. Kind of experiment: SPR, Biacore 8K, antibody captured on Protein A, native VWF as analyte (4.4-50 nM), single-cycle kinetics, 1:1 fit; replicate 1.
Procedure: as §2, §3
Experiment [5] deals with T1, human full-length VWF. Description: SPR, Biacore T200, antibody captured on Protein A, full-length VWF as analyte, single-cycle kinetics. The source holds these as a separate data set.
Procedure: as §1
For experiment [6], the target named is T1, human full-length VWF. The experiment is described as above. This is another data set of the same source.
Procedure: as §1
Experiment [7] addresses T2, human native VWF. Kind of experiment: ELISA, native VWF coated at 20 ng/well, semi-log dilution of the mAb from 10 µg/ml, anti-human IgG-HRP/TMB.
Procedure: (§4) Purified monoclonal antibodies originally derived from scFvs selected from rabbit immune library were tested for binding towards C1-C6-Fc, VWFAD4-C6, BSA (100 ng/well) and human native VWF (Imperial College, 20 ng/well). […] Protein targets were immobilized overnight on ELISA plates, blocked and incubated with a semi-log dilution series of purified recombinant monoclonal antibodies (starting concentration 10 μg/ml), averages of duplicate values are shown. Antibody binding towards human native VWF, VWFAD4-C6 and BSA were detected with antihuman IgG-HRP or anti-human IgG-HRP and TMB staining. ELISA reactivities towards C1-C6-Fc were performed in a separate ELISA experiment and were detected with anti-human IgGκ-HRP and TMB staining.
Experiment [8] has as its target T2, human native VWF. Description: SPR, Biacore 8K, antibody captured on Protein A, native VWF as analyte (4.4-50 nM), single-cycle kinetics, 1:1 fit; replicate 3.
Procedure: as §2, §3
Experiment [9] addresses T2, human native VWF. Description: ELISA, native VWF coated at 20 ng/well, semi-log dilution of the mAb from 10 µg/ml, anti-human IgG-HRP/TMB. This is another data set of the same source.
Procedure: as §4

Read-outs that look alike come from different tables or passages of the source.
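For koff in this document: running buffer HEPES pH 7.4 with 300 mM NaCl, 3 mM EDTA and 0.05% P20, about 350 RU antibody captured, in-line reference flow cell subtracted.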
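For kon in this document: running buffer HEPES pH 7.4 with 300 mM NaCl, 3 mM EDTA and 0.05% P20, about 350 RU antibody captured, in-line reference flow cell subtracted.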

B1: 3-H9_H2_L0 (antibody, human IgG1, kappa, V domains shown)
VH: QQLVESGGGVVQPGRSLRLSCAASGFSLSNYDMSWVRQAPGKGLEWIGSIHAIGITYYANWAEGRFTISRDKNTVYLQMNSLRAEDTATYFCARGLVDLNMWGQGTLVTVSS
VL: DIQMTQSPSSLSASVGDRVTITCQSSQSVYSNNLLSWYQQKPGKAPKLLIYDASTLESGVPSRFSGSGSGTDFTLTISSLQPEDFATYYCQGSYYSSGWYNTFGGGTKVEIKT
notes: humanised, human IgG1 kappa
By Kd is commonly meant the equilibrium constant for the complex coming apart. Higher therefore signals weaker binding. Broadly, the koff is a measure of how fast the partners let go of each other. For orientation: kon means a measure of how fast the partners come together. Read a high kon as faster complex formation. Take B1: in the experiment with human full-length VWF [1], the Kd is below 1 nM. For the same molecule, in the experiment with human full-length VWF [2], binding was put at a Kd of 0.0112 nM, the koff was 8.74e-07 s⁻¹ and the kon is 78100 M⁻¹ s⁻¹.

B2: 3-H9_H1_L0 (antibody, human IgG1, kappa, V domains shown)
VH: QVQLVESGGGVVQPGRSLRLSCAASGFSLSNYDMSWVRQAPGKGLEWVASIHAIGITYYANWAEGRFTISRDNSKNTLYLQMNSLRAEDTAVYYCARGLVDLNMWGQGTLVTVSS
VL: DIQMTQSPSSLSASVGDRVTITCQSSQSVYSNNLLSWYQQKPGKAPKLLIYDASTLESGVPSRFSGSGSGTDFTLTISSLQPEDFATYYCQGSYYSSGWYNTFGGGTKVEIKT
notes: humanised, human IgG1 kappa
B2: the Kd with human full-length VWF [1] is below 1 nM. In addition, in the experiment with human full-length VWF [2], binding was put at a Kd of 0.0156 nM, the koff was 2.84e-07 s⁻¹ and the kon was 18200 M⁻¹ s⁻¹.

B3: 3-H9_H0_L0 (antibody, human IgG1, kappa, V domains shown)
VH: QVQLVESGGGVVQPGRSLRLSCAASGFTFSNYDMSWVRQAPGKGLEWVASIHAIGITYYANWAEGRFTISRDNSKNTLYLQMNSLRAEDTAVYYCARGLVDLNMWGQGTLVTVSS
VL: DIQMTQSPSSLSASVGDRVTITCQSSQSVYSNNLLSWYQQKPGKAPKLLIYDASTLESGVPSRFSGSGSGTDFTLTISSLQPEDFATYYCQGSYYSSGWYNTFGGGTKVEIKT
notes: humanised, human IgG1 kappa
Consider B3, for which, in the experiment with human full-length VWF [1], the dissociation constant (Kd) was below 1 nM. In addition, in the experiment with human full-length VWF [2], the Kd was 0.00105 nM, the koff was 8.46e-08 s⁻¹ and the kon was determined as 80900 M⁻¹ s⁻¹.

B4: 1-A2 (antibody, human IgG1, V domains shown)
VH: QSVEESGGRLVPPGTPLTLTCTVSGIDLTSNAMNWVRQAPGKGLEWIGGIYGHDTSYYAAWAKGRFTISRTSTTVDLKMTRPTTDDTATYFCARGFIYFDIWGTGTLVTISS
VL: AIEMTQTPPSLSASVGETVRIRCLASEDIYSGISWYQQKPGKPPTLLIYGASNLESGVPPRFSGSGSGTDYTLTIGGVQAEDAATYYCLGGHSHSTTDLTFGAGTKVEIK
notes: Rabbit-derived variable domains cloned into a human IgG1 expression vector and expressed as monoclonal antibody; also called clone 1-A2; antibody 1-A2
With B4, the Kd is 0.527 nM in the experiment with human native VWF [3], 0.164 nM in the experiment with human native VWF [4] and 0.00802 nM with human full-length VWF [5].

B5: 4-H3 (antibody, human IgG1, V domains shown)
VH: QSLEESGGRLVPPGTPLTLTCTVSGIDLTSNAMNWVRQAPGKGLEWIGGIYGHDTSYYAAWAKGRFTISRTSTTVDLKMTRPTTDDTATYFCARGFIYFDIWGTGTLVTISS
VL: AYDMTQTPPSLSASVGETVRIRCLASEDIASGISWYQQKPGKPPTLLIYGASNLESGVPPRFSGSGSGTDYTLTIGGVQAEDAATYYCLGGYSFSSNGLTFGAGTKVEIK
notes: Rabbit-derived variable domains expressed as human IgG1; also called clone 4-H3
Regarding B5, the Kd in the experiment with human native VWF [3] stood at 0.154 nM; with human native VWF [4] it was 0.123 nM; with human full-length VWF [5] it was 0.0153 nM.

B6: 3-H9 (antibody, human IgG1, V domains shown)
VH: QSLEESGGRLVTPGTPLTLTCSVSGFSLSNYDMSWVRQAPGKGLEWIGSIHAIGITYYANWAEGRFTISKTSTTVDLKMTSLTTEDTATYFCARGLVDLNMWGPGTLVTVSS
VL: AIKMTQTPSSVSVAVGGTVTINCQSSQSVYSNNLLSWYQQKPGQPPKLLIYDASTLESGVPSRFKGSGSGTQFTLTISGVQCEDAATYYCQGSYYSSGWYNTFGGGTEVVVE
notes: Rabbit-derived variable domains expressed as human IgG1; also called clone 3-H9; antibody 3-H9
Usually EC50 (read off the curve) stands for the concentration needed to bring the measured effect to its halfway point. In the case of B6, the Kd is 0.0603 nM in the experiment with human full-length VWF [6], 0.084 nM in the experiment with human native VWF [3], 0.0487 nM with human native VWF [4] and 0.025 nM in the experiment with human native VWF [8]. Moreover, the “EC50 (read off the curve)” value with human native VWF [7] was around 8 ng/mL.

B7: 1-G5 (antibody, human IgG1, V domains shown)
VH: QSLEESGGRLVTPGTPLTLTCSVSGFSLSSYDMTWVRQAPGKGLEWIGSIHATGITFYANWAKGRFTTSKTSTTVDLKMTSLTTEDTATYFCARGLVDLNMWGPGTLVTVSS
VL: DPVMTQTASSVSAAVGGTVTINCQASQSVYNNNYLSWYQQKPGQPPKLLIYDASTLASGVPSRFSGNGSGTQFTLTISGVQCDDAATYYCQGSYYSGGWDTAFGGGTKVVVK
notes: Rabbit-derived variable domains expressed as human IgG1; also called clone 1-G5
Turning to B7, the Kd in the experiment with human native VWF [3] was determined as 0.079 nM; in the experiment with human full-length VWF [2], 0.0253 nM; with human native VWF [4] it was 0.0549 nM; in the experiment with human native VWF [8], 0.123 nM.

B8: 1-G5_H2_L1 (antibody, human IgG1, kappa)
heavy: not shown
light: DPQMTQSPSSLSASVGDRVTITCQASQSVYNNNYLSWYQQKPGKAPKLLIYDASTLASGVPSRFSGSGSGTDFTLTISSLQPEDFATYYCQGSYYSGGWDTAFGGGTKVEIKTVAAPSVFIFPPSDEQLKSGTASVVCLLNNFYPREAKVQWKVDNALQSGNSQESVTEQDSKDSTYSLSSTLTLSKADYEKHKVYACEVTHQGLSSPVTKSFNRGEC
notes: humanised, human IgG1 kappa
In the experiment with human full-length VWF [1], B8 gave a Kd below 1 nM. Besides, in the experiment with human full-length VWF [2], the Kd was 0.000174 nM, the koff worked out at 2.25e-08 s⁻¹ and the kon was determined as 129000 M⁻¹ s⁻¹.

B9: 1-G5_H1_L1 (antibody, human IgG1, kappa)
heavy: not shown
light: DPQMTQSPSSLSASVGDRVTITCQASQSVYNNNYLSWYQQKPGKAPKLLIYDASTLASGVPSRFSGSGSGTDFTLTISSLQPEDFATYYCQGSYYSGGWDTAFGGGTKVEIKTVAAPSVFIFPPSDEQLKSGTASVVCLLNNFYPREAKVQWKVDNALQSGNSQESVTEQDSKDSTYSLSSTLTLSKADYEKHKVYACEVTHQGLSSPVTKSFNRGEC
notes: humanised, human IgG1 kappa
B9 showed a Kd with human full-length VWF [1] below 1 nM. In the experiment with human full-length VWF [2], the dissociation constant (Kd) came to 0.0148 nM, the koff worked out at 6.03e-07 s⁻¹ and the kon turned out to be 40700 M⁻¹ s⁻¹.

B10: 1-G5_H2_L0 (antibody, human IgG1, kappa)
heavy: not shown
light: DIQMTQSPSSLSASVGDRVTITCQASQSVYNNNYLSWYQQKPGKAPKLLIYDASTLASGVPSRFSGSGSGTDFTLTISSLQPEDFATYYCQGSYYSGGWDTAFGGGTKVEIKTVAAPSVFIFPPSDEQLKSGTASVVCLLNNFYPREAKVQWKVDNALQSGNSQESVTEQDSKDSTYSLSSTLTLSKADYEKHKVYACEVTHQGLSSPVTKSFNRGEC
notes: humanised, human IgG1 kappa
Consider B10, for which the Kd in the experiment with human full-length VWF [1] was below 1 nM. Also, in the experiment with human full-length VWF [2], the Kd amounted to 0.013 nM, the koff turned out to be 3.9e-07 s⁻¹ and the kon amounted to 29900 M⁻¹ s⁻¹.

B11: 1-G5_H0_L1 (antibody, human IgG1, kappa)
heavy: not shown
light: DPQMTQSPSSLSASVGDRVTITCQASQSVYNNNYLSWYQQKPGKAPKLLIYDASTLASGVPSRFSGSGSGTDFTLTISSLQPEDFATYYCQGSYYSGGWDTAFGGGTKVEIKTVAAPSVFIFPPSDEQLKSGTASVVCLLNNFYPREAKVQWKVDNALQSGNSQESVTEQDSKDSTYSLSSTLTLSKADYEKHKVYACEVTHQGLSSPVTKSFNRGEC
notes: humanised, human IgG1 kappa
As to B11, the Kd with human full-length VWF [1] is below 1 nM. In the experiment with human full-length VWF [2], this molecule yielded a Kd of 0.0129 nM, a koff of 1.02e-06 s⁻¹ and a kon of 79000 M⁻¹ s⁻¹.

B12: 1-G5_H0_L0 (antibody, human IgG1, kappa)
heavy: not shown
light: DIQMTQSPSSLSASVGDRVTITCQASQSVYNNNYLSWYQQKPGKAPKLLIYDASTLASGVPSRFSGSGSGTDFTLTISSLQPEDFATYYCQGSYYSGGWDTAFGGGTKVEIKTVAAPSVFIFPPSDEQLKSGTASVVCLLNNFYPREAKVQWKVDNALQSGNSQESVTEQDSKDSTYSLSSTLTLSKADYEKHKVYACEVTHQGLSSPVTKSFNRGEC
notes: humanised, human IgG1 kappa
In the case of B12, the Kd with human full-length VWF [1] was below 1 nM. In the experiment with human full-length VWF [2], this molecule displayed a Kd of 0.0011 nM, a koff of 9.05e-08 s⁻¹ and a kon of 82400 M⁻¹ s⁻¹.

B13: 1-D5 (antibody, human IgG1, V domains shown)
VH: QQQLVESGGRLVTPGTPLTLTCAVSGFSLNNYIMGWVRQAPGKGLEYIGIISTGGSTYYASWAKGRFTISRTSTTMDLKMTSLTTEDTATYFCARGGSSAGAGFNIWGPGTLVTVSS
VL: DIVMTQTPSSVSAAVGDTVTIQCQASQSINSGLAWYQQKPGQPPKRLIYKASTLASGVPSRFRGSGSGTDFTLTISDLECADAATYYCQSYHYISANGATFGGGTEVVVE
notes: Rabbit-derived variable domains expressed as human IgG1; also called clone 1-D5; antibody 1-D5
For B13, the Kd with human native VWF [3] was found to be 0.0381 nM; with human native VWF [4], 0.025 nM; with human native VWF [8], 0.0641 nM. Moreover, the “EC50 (read off the curve)” value with human native VWF [9] is around 6 ng/mL.
